These results are taken from the supplement of paper PMC11246515.

± gives the standard deviation of the averaged measurements.

The series can be described thus: total protein half-life in vivo (active degradation + dilution); higher = more stable protein.
The mark [1] stands for this setting: E. coli NCM3722 delta-smpB, growth: N-lim chemostat, doubling time 6 h.
The mark [2] stands for this setting: wild type E. coli NCM3722, growth: C-lim chemostat, doubling time 6 h.
Where [3] appears, read: wild type E. coli NCM3722, growth: C-lim chemostat, doubling time 12 h.
Setting [4] is: wild type E. coli NCM3722, growth: N-lim chemostat, doubling time 12 h.
[5] abbreviates: E. coli NCM3722 delta-clpP delta-lon delta-hslV, growth: N-lim chemostat, doubling time 6 h.
Where [6] appears, read: E. coli NCM3722 delta-clpP, growth: N-lim chemostat, doubling time 6 h.
Where [7] appears, read: E. coli NCM3722 delta-hslV, growth: N-lim chemostat, doubling time 6 h.
[8] abbreviates: E. coli NCM3722 delta-lon, growth: N-lim chemostat, doubling time 6 h.
Where [9] appears, read: wild type E. coli NCM3722, growth: C-lim chemostat, doubling time 3 h.
Where [10] appears, read: wild type E. coli NCM3722, growth: N-lim chemostat, doubling time 6 h.
The mark [11] stands for this setting: wild type E. coli NCM3722, growth: P-lim chemostat, doubling time 6 h.
Where [12] appears, read: wild type E. coli NCM3722, growth: P-lim chemostat, doubling time 12 h.

With “MHSQIWVVSTLLISIVLIVLTIVKFKFHPFLALLLASFFVGTMMGMGPLDMVNAIESGIGGTLGFLAAVIGLGTILGKMMEVSGAAERIGLTLQRCRWLSVDVIMVLVGLICGITLFVEVGVVLLIPLAFSIAKKTNTSLLKLAIPLCTALMAVHCVVPPHPAALYVANKLGADIGSVIVYGLLVGLMASLIGGPLFLKFLGQRLPFKPVPTEFADLKVRDEKTLPSLGATLFTILLPIALMLVKTIAELNMARESGLYILVEFIGNPITAMFIAVFVAYYVLGIRQHMSMGTMLTHTENGFGSIANILLIIGAGGAFNAILKSSSLADTLAVILSNMHMHPILLAWLVALILHAAVGSATVAMMGATAIVAPMLPLYPDISPEIIAIAIGSGAIGCTIVTDSLFWLVKQYCGATLNETFKYYTTATFIASVVALAGTFLLSFII”, the “total protein half-life in vivo” value came to 4.91 h under setting [1], 5.8 h under setting [2], 11.9 h under setting [3] and 9.38 h under setting [4].
In the case of “MKPTSVIIMDTHPIIRMSIEVLLQKNSELQIVLKTDDYRITIDYLRTRPVDLIIMDIDLPGTDGFTFLKRIKQIQSTVKVLFLSSKSECFYAGRAIQAGANGFVSKCNDQNDIFHAVQMILSGYTFFPSETLNYIKSNKCSTNSSTVTVLSNREVTILRYLVSGLSNKEIADKLLLSNKTVSAHKSNIYGKLGLHSIVELIDYAKLYELI [P0AEL8]”, under setting [5], the “total protein half-life in vivo” value came to 5.67 ± 0.072 h.
As to “MKTIEVDDELYSYIASHTKHIGESASDILRRMLKFSAASQPAAPVTKEVRVASPAIVEAKPVKTIKDKVRAMRELLLSDEYAEQKRAVNRFMLLLSTLYSLDAQAFAEATESLHGRTRVYFAADEQTLLKNGNQTKPKHVPGTPYWVITNTNTGRKCSMIEHIMQSMQFPAELIEKVCGTI [P0AFY8]”, the “total protein half-life in vivo” value by setting is: under setting [5], 6.27 ± 0.64 h; under setting [6], 5.709 ± 0.046 h; under setting [7], 5.89 ± 0.072 h; under setting [8], 5.19 ± 0.16 h; under setting [1], 4.27 ± 0.23 h; under setting [9], 2.738 ± 0.014 h. Moreover, the “total protein half-life in vivo” value was found to be 4.84 ± 0.89 h under setting [2]; 12.7 ± 0.44 h under setting [3]; 4.7 ± 0.42 h under setting [10]; 8.55 ± 1.1 h under setting [4]; 4.71 ± 0.44 h under setting [11]; 9.12 ± 0.4 h under setting [12].
For the sequence “MTQPLVGKQILIVEDEQVFRSLLDSWFSSLGATTVLAADGVDALELLGGFTPDLMICDIAMPRMNGLKLLEHIRNRGDQTPVLVISATENMADIAKALRLGVEDVLLKPVKDLNRLREMVFACLYPSMFNSRVEEEERLFRDWDAMVDNPAAAAKLLQELQPPVQQVISHCRVNYRQLVAADKPGLVLDIAALSENDLAFYCLDVTRAGHNGVLAALLLRALFNGLLQEQLAHQNQRLPELGALLKQVNHLLRQANLPGQFPLLVGYYHRELKNLILVSAGLNATLNTGEHQVQISNGVPLGTLGNAYLNQLSQRCDAWQCQIWGTGGRLRLMLSAE [P0AEV1]”, the “total protein half-life in vivo” value by setting is: under setting [5], 3.97 ± 0.57 h; under setting [6], 3.09 ± 0.13 h; under setting [7], 3.094 ± 0.028 h; under setting [8], 3.57 ± 0.32 h; under setting [1], 2.961 ± 0.028 h; under setting [9], 2.72 ± 0.33 h. Besides, the “total protein half-life in vivo” value amounted to 4.34 ± 0.48 h under setting [2]; 8.52 ± 0.76 h under setting [3]; 3.39 ± 0.12 h under setting [10]; 5.16 ± 0.3 h under setting [4]; 5.53 ± 0.37 h under setting [11]; 10.1 ± 0.53 h under setting [12].
Turning to “MGAYLIRRLLLVIPTLWAIITINFFIVQIAPGGPVDQAIAAIEFGNAGVLPGAGGEGVRASHAQTGVGNISDSNYRGGRGLDPEVIAEITHRYGFDKPIHERYFKMLWDYIRFDFGDSLFRSASVLTLIKDSLPVSITLGLWSTLIIYLVSIPLGIRKAVYNGSRFDVWSSAFIIIGYAIPAFLFAILLIVFFAGGSYFDLFPLRGLVSANFDSLPWYQKITDYLWHITLPVLATVIGGFAALTMLTKNSFLDEVRKQYVVTARAKGVSEKNILWKHVFRNAMLLVIAGFPATFISMFFTGSLLIEVMFSLNGLGLLGYEATVSRDYPVMFGTLYIFTLIGLLLNIVSDISYTLVDPRIDFEGR [P0AFU0]”, the “total protein half-life in vivo” value by setting is: under setting [5], 7.09 ± 0.14 h; under setting [6], 5.97 h; under setting [7], 6.39 ± 0.7 h; under setting [8], 5.52 ± 0.49 h; under setting [1], 5.85 ± 0.32 h; under setting [9], 3.47 ± 0.61 h. Also, the “total protein half-life in vivo” value is 5.83 ± 1.1 h under setting [2]; 13.9 ± 1.7 h under setting [3]; 5.33 h under setting [10]; 11.8 ± 1.6 h under setting [4]; 6.2 h under setting [11]; 12.4 ± 0.79 h under setting [12].
Regarding “MIAEFESRILALIDGMVDHASDDELFASGYLRGHLTLAIAELESGDDHSAQAVHTTVSQSLEKAIGAGELSPRDQALVTDMWENLFQQASQQ”, the “total protein half-life in vivo” value was 4.91 ± 0.31 h under setting [5]; 3.35 ± 0.41 h under setting [6]; 2.9 ± 0.23 h under setting [7]; 3.81 ± 0.062 h under setting [8]; 2.1 ± 0.046 h under setting [1]; 2.2 ± 0.23 h under setting [9]. For the same sequence, the “total protein half-life in vivo” value is, setting by setting: under setting [2], 3.39 ± 0.1 h; under setting [3], 4.87 ± 0.25 h; under setting [10], 2.71 ± 0.54 h; under setting [4], 3.79 h; under setting [11], 2.75 ± 0.83 h; under setting [12], 4.58 ± 0.62 h.
For “MSENSIRLTQYSHGAGCGCKISPKVLETILHSEQAKFVDPNLLVGNETRDDAAVYDLGNGTSVISTTDFFMPIVDNPFDFGRIAATNAISDIFAMGGKPIMAIAILGWPINKLSPEIAREVTEGGRYACRQAGIALAGGHSIDAPEPIFGLAVTGIVPTERVKKNSTAQAGCKLFLTKPLGIGVLTTAEKKSLLKPEHQGLATEVMCRMNIAGASFANIEGVKAMTDVTGFGLLGHLSEMCQGAGVQARVDYEAIPKLPGVEEYIKLGAVPGGTERNFASYGHLMGEMPREVRDLLCDPQTSGGLLLAVMPEAENEVKATAAEFGIELTAIGELVPARGGRAMVEIR”, the “total protein half-life in vivo” value under setting [5] worked out at 3.58 ± 0.34 h; the “total protein half-life in vivo” value under setting [6] was 2.94 ± 0.2 h; the “total protein half-life in vivo” value under setting [7] was found to be 2.5242 ± 0.00055 h; the “total protein half-life in vivo” value under setting [8] is 3.85 ± 0.73 h; the “total protein half-life in vivo” value under setting [1] was 2.76 ± 0.077 h; the “total protein half-life in vivo” value under setting [9] turned out to be 3.01 ± 0.23 h. In addition, the “total protein half-life in vivo” value is, setting by setting: under setting [2], 4.95 ± 0.13 h; under setting [3], 8.899 ± 0.067 h; under setting [10], 2.816 ± 0.0089 h; under setting [4], 3.67 ± 0.27 h; under setting [11], 5.34 ± 0.23 h; under setting [12], 10.1 ± 0.65 h.
